From PMC11058771

Biological target: mouse teneurin-3 A1B1 complete extracellular domain (ECD, residues 342-2715) (mouse) (UniProt Q9WTS6)
Test: SEC-MALS; purified ECD, 0.5 mg/mL in 20 mM HEPES pH 7.8, 150 mM NaCl, 2 mM CaCl2, Superose6 Increase 10/300 GL; also SDS-PAGE with or without beta-mercaptoethanol; covalent (disulphide-linked) dimer

Substance: mouse teneurin-3 A1B1 complete extracellular domain (ECD, residues 342-2715), Q9WTS6-1 342-2715
- stoichiometry N: 2
